The record followed here is paper PMC7938805, “Biophysical and biochemical properties of Deup1 self-assemblies: a potential driver for deuterosome formation during multiciliogenesis” (Biology Open, 2021).

This data set deals with the molecule itself. The experiment in a line: fluorescence microscopy of assemblies of purified protein; purified fluorescent protein (100 nM where stated) in 50 mM Tris pH 7.5, 150 mM NaCl, 1.5% glycerol with PEG8000 (up to 6%) or BSA 300 mg/ml as crowding agent, RT 10 min, confocal imaging.

B1: mScarlet I-Deup1 (deuterosome protein 1, mouse, longer isoform) (natural protein, UniProt Q7M6Y5-1 1-601, looked up)
chain: MENQAHTTAGASPCEAELQELMEQIDIMVSNKKLDWERKMRALETRLDLRDQELANAQTCLDQKGQEVGLLRQKLDSLEKCNLVMTQNYEGQLQTLKAQFSKLTSNFEKLRLHQMKQNQIHRKESSSKEELPFELSSLNQKLEEFRAKSREWDKQEVLYQTHLVSLDAQQKLLSEKCSQFQKQAQNYQTQLNGKKQCAEDSSSEIPRLVCESDPGCEATQRDEFIIEKLKSAVSEIALSRNKLQDENQKLLQELKMYQRQCQAMEAGLSEVKSELQSRDDLLRIIEMERLHLHRELLRMGEVQTAQDNRKRVESSYSPSPKEAERKRKELFPMVSDQPNHEKELSKMRSQLYQEEGLCSEQERLRSEISELTQELHQKEVTIATVMKKAALLERQLKIELEIKERMLAKQQVSDRRYKAVRTENTHLKGMMGDLDPARYLAVDLSNKKHSQCTSINKLEYENERLRSDLAKLHGNGKAAWPNQSSYGEAGAYVFQSQLKTETSGDRISQDCELNRSPTPLSPLPFQTKEMASPLVGDNEVLALSPPDISFRASLAAQHFLMEEERRAKELEKLLNTHIDELQRHTEFTLNKYTKLKQSRHI
notes: Deuterosome protein 1 (Deup1), mouse, longer isoform NP_001360846, cloned from a mouse lung cDNA library with primers from the start to the stop codon; 601 residues by the fragment limits; Expressed from pGEX 6p-1 modified with a C-terminal 6xHis tag and a TEV site; also called mS-Deup1; full-length Deup1; source: E. coli BL21 gold (DE3), purified (Ni-NTA, glutathione sepharose, eluted with …)
Turning to B1, the binding result is “binds”.

B2: mScarlet I-Deup1 N-terminus fragment (1-466 a.a.) (domain or fragment, mouse, UniProt Q7M6Y5-1 1-466, looked up)
chain: MENQAHTTAGASPCEAELQELMEQIDIMVSNKKLDWERKMRALETRLDLRDQELANAQTCLDQKGQEVGLLRQKLDSLEKCNLVMTQNYEGQLQTLKAQFSKLTSNFEKLRLHQMKQNQIHRKESSSKEELPFELSSLNQKLEEFRAKSREWDKQEVLYQTHLVSLDAQQKLLSEKCSQFQKQAQNYQTQLNGKKQCAEDSSSEIPRLVCESDPGCEATQRDEFIIEKLKSAVSEIALSRNKLQDENQKLLQELKMYQRQCQAMEAGLSEVKSELQSRDDLLRIIEMERLHLHRELLRMGEVQTAQDNRKRVESSYSPSPKEAERKRKELFPMVSDQPNHEKELSKMRSQLYQEEGLCSEQERLRSEISELTQELHQKEVTIATVMKKAALLERQLKIELEIKERMLAKQQVSDRRYKAVRTENTHLKGMMGDLDPARYLAVDLSNKKHSQCTSINKLEYENERLR
notes: Deuterosome protein 1 (Deup1), mouse, longer isoform NP_001360846, residues 1-466, with multiple coiled coil domains; source: E. coli BL21 gold (DE3), purified (Ni-NTA, glutathione sepharose, eluted with PreScission and TEV protease); not shown: GST, N-terminal, cleaved; mScarlet I, N-terminal, kept; His6, C-terminal, cleaved
B2: the binding result is given as “binds”.
